Measurements reported in patent US20120058906A1 (published 2012).
Each block holds one binder with its values, some of them ahead of it.

Legend:
[1] = target: T1, Recombinant Human DLL4 (R&D Systems Cat#1506-D4/CF) (human, UniProt Q9NR61 27-524); experiment: MSD ECL multi-spot plate; Fab 17.5 nM; blank spot 304
T1 construct: also called delta-like protein 4

[2] = target: T2, rHuman HGF R/c-MET/Fc Chimera, CF (R&D Systems Cat#358-MT/CF) (human, UniProt P08581 25-932); experiment: as above
T2 construct: also called HGF R/Fc; hepatocyte growth factor receptor; Fc part of the bought chimera not given

[3] = target: T3, rHuman IGF-1 sR, (IGF-1 sR), CF (R&D Systems Cat#391-GR) (human, UniProt P08069 31-932); experiment: as above
T3 construct: also called insulin-like growth factor-1 soluble receptor; IGF-R1

[4] = target: T4, rHuman Notch-1/Fc Chimera, CF (R&D Systems Cat#3647-TK) (human, UniProt P46531 19-526); experiment: as above
T4 construct: Fc part of the bought chimera not given

[5] = target: T1, Recombinant Human DLL4 (R&D Systems …); experiment: MSD ECL multi-spot plate; Fab 4.375 nM; blank spot 305
[6] = target: T5, rHuman ErbB2/Fc Chimera, CF (R&D Systems Cat#1129-ER) (human, UniProt P04626 23-652); experiment: as above
T5 construct: also called HER2/neu; human epidermal growth factor 2 receptor; Fc part of the bought chimera not given

[7] = target: T2, rHuman HGF R/c-MET/Fc Chimera, CF (R&D …); experiment: as above
[8] = target: T3, rHuman IGF-1 sR, (IGF-1 sR), CF (R&D …); experiment: as above
[9] = target: T4, rHuman Notch-1/Fc Chimera, CF (R&D …); experiment: as above
[10] = target: T6, rHuman CD44/Fc Chimera, CF (R&D Systems Cat#3660-CD) (human, UniProt P16070 21-220); experiment: as above
T6 construct: Fc part of the bought chimera not given

[11] = target: T1, Recombinant Human DLL4 (R&D Systems …); experiment: MSD ECL multi-spot plate; Fab 280 nM; blank spot 1691
[12] = target: T5, rHuman ErbB2/Fc Chimera, CF (R&D …); experiment: as above
[13] = target: T2, rHuman HGF R/c-MET/Fc Chimera, CF (R&D …); experiment: as above
[14] = target: T3, rHuman IGF-1 sR, (IGF-1 sR), CF (R&D …); experiment: as above
[15] = target: T4, rHuman Notch-1/Fc Chimera, CF (R&D …); experiment: as above
[16] = target: T6, rHuman CD44/Fc Chimera, CF (R&D Systems …); experiment: as above
[17] = target: T1, Recombinant Human DLL4 (R&D Systems …); experiment: MSD ECL multi-spot plate; Fab 70 nM; blank spot 635
[18] = target: T5, rHuman ErbB2/Fc Chimera, CF (R&D …); experiment: as above
[19] = target: T2, rHuman HGF R/c-MET/Fc Chimera, CF (R&D …); experiment: as above
[20] = target: T3, rHuman IGF-1 sR, (IGF-1 sR), CF (R&D …); experiment: as above
[21] = target: T4, rHuman Notch-1/Fc Chimera, CF (R&D …); experiment: as above
[22] = target: T6, rHuman CD44/Fc Chimera, CF (R&D Systems …); experiment: as above
[23] = target: T7, rHuman Erythropoietin R/Fc Chimera, CF (R&D Systems Cat#963-ER) (human, UniProt P19235 25-250); experiment: MSD ECL multi-spot, Fab 2.38 uM, blank 526
T7 construct: Bought Fc chimera; also called EPO R/Fc; EPOR; Fc part of the bought chimera not given
T7 sequence: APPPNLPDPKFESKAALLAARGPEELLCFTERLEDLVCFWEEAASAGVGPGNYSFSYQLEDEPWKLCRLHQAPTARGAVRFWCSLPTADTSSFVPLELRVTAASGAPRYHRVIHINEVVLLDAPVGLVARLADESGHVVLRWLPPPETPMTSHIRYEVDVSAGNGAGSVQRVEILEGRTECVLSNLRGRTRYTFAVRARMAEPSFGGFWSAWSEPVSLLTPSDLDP

[24] = target: T8, rHuman EGF R/Fc Chimera, CF (R&D Systems Cat#344-ER) (human, UniProt P00533 25-645); experiment: MSD ECL multi-spot, Fab 2.38 uM, blank 526
T8 construct: Bought Fc chimera; Fc part of the bought chimera not given

[25] = target: T9, rHuman ErbB2/Fc Chimera, CF (R&D Systems Cat#1129-ER) (human, UniProt P04626 23-652); experiment: MSD ECL multi-spot, Fab 2.38 uM, blank 526
T9 construct: Bought Fc chimera; also called HER2/neu; Fc part of the bought chimera not given

[26] = target: T10, rHuman IGF-1 sR (insulin-like growth factor-1 soluble receptor), CF (R&D Systems Cat#391-GR) (human, UniProt P08069 31-932); experiment: MSD ECL multi-spot, Fab 2.38 uM, blank 526
T10 construct: Bought soluble receptor; also called IGF-R1

[27] = target: T11, rHuman CD44/Fc Chimera, CF (R&D Systems Cat#3660-CD) (human, UniProt P16070 21-220); experiment: MSD ECL multi-spot, Fab 2.38 uM, blank 526
T11 construct: Bought Fc chimera; Fc part of the bought chimera not given

[28] = target: T12, Recombinant Human DLL4 (R&D Systems Cat#1506-D4/CF) (human, UniProt Q9NR61 27-524); experiment: MSD ECL multi-spot, Fab 2.38 uM, blank 526
T12 construct: Bought recombinant protein; also called rHuman DLL4; delta-like protein 4

[29] = target: T13, rHuman Notch-1/Fc Chimera, CF (R&D Systems Cat#3647-TK) (human, UniProt P46531 19-526); experiment: MSD ECL multi-spot, Fab 2.38 uM, blank 526
T13 construct: Bought Fc chimera; Fc part of the bought chimera not given
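Further: blank spot per well as comparator with Hit at signal to blank ratio of 4 or more.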

ECL signal [1]: 1220 ECL signal | ECL signal [2]: 565 ECL signal | ECL signal [3]: 626 ECL signal | ECL signal [4]: 680 ECL signal | ECL signal [5]: 558 ECL signal | ECL signal [6]: 384 ECL signal | ECL signal [7]: 193 ECL signal | ECL signal [8]: 369 ECL signal | ECL signal [9]: 480 ECL signal | ECL signal [10]: 424 ECL signal | ECL signal [11]: 8110 ECL signal | ECL signal [12]: 3950 ECL signal | ECL signal [13]: 3560 ECL signal | ECL signal [14]: 3530 ECL signal | ECL signal [15]: 4380 ECL signal | ECL signal [16]: 4070 ECL signal | ECL signal [17]: 2750 ECL signal | ECL signal [18]: 1360 ECL signal | ECL signal [19]: 1290 ECL signal | ECL signal [20]: 1320 ECL signal | ECL signal [21]: 1490 ECL signal | ECL signal [22]: 1370 ECL signal
B1: Fab VH1-46_IGHD2-15*01_IGHJ2*01 & L12_IGKJ1*01 (Fab, V domains shown)
VH: QVQLVQSGAEVKKPGASVKVSCKASGYTFTSYYMHWVRQAPGQGLEWMGIINPSGGSTSYAQKFQGRVTMTRDTSTSTVYMELSSLRSEDTAVYYCAREGYCSGGSCYSYWYFDLWGRGTLVTVSS
VL: not shown

ECL signal [23]: 834 | ECL signal [24]: 681 | ECL signal [25]: 594 | ECL signal [26]: 691 | ECL signal [27]: 666 | ECL signal [28]: 12200 | ECL signal [29]: 636
B2: Fab VH5-51_IGHD5-18*01>3_IGHJ4*01 & V3-4_IGLJ1*01 (Fab, V domains shown)
VH: EVQLVQSGAEVKKPGESLKISCKGSGYSFTSYWIGWVRQMPGKGLEWMGIIYPGDSDTRYSPSFQGQVTISADKSISTAYLQWSSLKASDTAMYYCARRGYSYGYDYFDYWGQGTLVTVSS
VL: QTVVTQEPSFSVSPGGTVTLTCGLSSGSVSTSYYPSWYQQTPGQAPRTLIYSTNTRSSGVPDRFSGSILGNKAALTITGAQADDESDYYCVLYMGSGISYVFGTGTKVTVL
notes: Expressed in E. coli as Fab: heavy chain with CH1 plus Flag and His tags from Plasmid A, lambda light chain constant region from Plasmid E; also called Fab No. 2
